Data: patent US20230103885A1 (CRISPR THERAPEUTICS, published 2023)

Tests used:
[1] = molecular target: T1, anti-CD19 CAR comprising the anti-CD19 scFv of SEQ ID NO:1; experiment: flow cytometry on anti-CD19 CAR T cells, dilution 1:50
T1 construct: also called anti-CD19 chimeric antigen receptor; anti-CD19 CAR T cells
Description: (§1) The 29E4B5 antibodies produced using the first or the second method were compared with a reference anti-FMC63-scFv antibody (rec_mab3) for the ability to bind to the anti-CD19 CAR T cells using flow cytometry. Both methods produced 29E4B5 antibodies with higher affinity to the anti-CD19 cells than rec_mab3, showing higher CAR positive percentage even at 1:6,400 dilutions (Table 9).

[2] = molecular target: T1, anti-CD19 CAR comprising the anti-CD19 …; experiment: flow cytometry on anti-CD19 CAR T cells, dilution 1:100
Description: as §1

[3] = molecular target: T1, anti-CD19 CAR comprising the anti-CD19 …; experiment: flow cytometry on anti-CD19 CAR T cells, dilution 1:800
Description: as §1

[4] = molecular target: T1, anti-CD19 CAR comprising the anti-CD19 …; experiment: flow cytometry on anti-CD19 CAR T cells, dilution 1:3200
Description: as §1

[5] = molecular target: T1, anti-CD19 CAR comprising the anti-CD19 …; experiment: flow cytometry on anti-CD19 CAR T cells, dilution 1:6400
Description: as §1

[6] = molecular target: T2, Recombinant FMC63-scFv protein; experiment: indirect ELISA, subclone culture supernatant on coated antigen
T2 construct: also called His-tagged single-chain variable fragment of mouse anti-human CD19 antibody FMC63; coating antigen A
T2 sequence (scFv, as listed by the source): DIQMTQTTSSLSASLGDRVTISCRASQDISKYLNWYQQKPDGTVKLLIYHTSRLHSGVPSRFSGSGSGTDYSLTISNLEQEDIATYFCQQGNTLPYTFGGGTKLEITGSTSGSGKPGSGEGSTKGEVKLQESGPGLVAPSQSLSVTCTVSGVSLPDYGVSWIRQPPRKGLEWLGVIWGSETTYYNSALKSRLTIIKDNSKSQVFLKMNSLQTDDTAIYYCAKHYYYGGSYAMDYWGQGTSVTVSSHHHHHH

[7] = molecular target: T3, FMC63-scFv linker peptide; experiment: as above
T3 construct: also called coating antigen B
T3 peptide: TGSTSGSGKPGSGEGSTKG

[8] = molecular target: T4, irrelevant His-tagged protein; experiment: as above
T4 construct: also called coating antigen C

Total human IgG [9] = molecular target: T5, Total human IgG (human); experiment: as above
T5 construct: also called coating antigen D

[10] = molecular target: T2, Recombinant FMC63-scFv protein; experiment: indirect ELISA, purified native antibody at 250 ng/ml (1:4,000)
Description: (§2) In the first (native) method, hybridoma cells (29E4B5) were cultured in low IgG culture medium in a roller bottle for 10 days. The supernatants were collected and protein A purified to obtain purified antibodies. The purified antibodies were analyzed for the ability to bind the FMC63-scFv protein and anti-CD19 CAR T cells using ELISA (Table 8).
(§3) A: Recombinant FMC63-scFv protein B: […] (FMC63-scFv linker peptide)(SEQ ID NO: 6) C: His-tagged protein D: Total human IgG The titer was the highest dilution where the Signal/Blank (S/B) ratio was ≥2.1. OD₄₅₀ for Blank was the average of two technical replicates. The starting concentration was 1 mg/ml, and the corresponding dilution ratio was calculated based on the actual concentration.

[11] = molecular target: T3, FMC63-scFv linker peptide; experiment: as above
Description: as §2, §3

[12] = molecular target: T4, irrelevant His-tagged protein; experiment: as above
Description: as §2, §3

Total human IgG [13] = molecular target: T5, Total human IgG; experiment: as above
Description: as §2, §3

[14] = molecular target: T2, Recombinant FMC63-scFv protein; experiment: indirect ELISA, purified native antibody at 500 ng/ml (1:2,000)
Description: as §2, §3

[15] = molecular target: T3, FMC63-scFv linker peptide; experiment: as above
Description: as §2, §3

[16] = molecular target: T4, irrelevant His-tagged protein; experiment: as above
Description: as §2, §3

Total human IgG [17] = molecular target: T5, Total human IgG; experiment: as above
Description: as §2, §3

[18] = molecular target: T2, Recombinant FMC63-scFv protein; experiment: indirect ELISA, purified native antibody at 1.95 ng/ml (1:512,000)
Description: as §2, §3

[19] = molecular target: T3, FMC63-scFv linker peptide; experiment: as above
Description: as §2, §3

[20] = molecular target: T4, irrelevant His-tagged protein; experiment: as above
Description: as §2, §3

Total human IgG [21] = molecular target: T5, Total human IgG; experiment: as above
Description: as §2, §3

[22] = molecular target: T2, Recombinant FMC63-scFv protein; experiment: indirect ELISA, purified native antibody at 15.62 ng/ml (1:64,000)
Description: as §2, §3

[23] = molecular target: T3, FMC63-scFv linker peptide; experiment: as above
Description: as §2, §3

[24] = molecular target: T4, irrelevant His-tagged protein; experiment: as above
Description: as §2, §3

Total human IgG [25] = molecular target: T5, Total human IgG; experiment: as above
Description: as §2, §3

[26] = molecular target: T2, Recombinant FMC63-scFv protein; experiment: indirect ELISA, purified native antibody at 3.90 ng/ml (1:256,000)
Description: as §2, §3

[27] = molecular target: T3, FMC63-scFv linker peptide; experiment: as above
Description: as §2, §3

[28] = molecular target: T4, irrelevant His-tagged protein; experiment: as above
Description: as §2, §3

Total human IgG [29] = molecular target: T5, Total human IgG; experiment: as above
Description: as §2, §3

[30] = molecular target: T4, irrelevant His-tagged protein; experiment: indirect ELISA, purified native antibody; highest dilution with Signal/Blank >=2.1
Description: as §2, §3

B1: mouse anti-FMC63-scFv monoclonal antibody 29E4B5 (antibody, mouse IgG1, kappa, V domains shown)
VH: EVKLLQSGGGLVQPGGSLKLSCAASGIDFSRYWMSWVRRAPGKGLEWIGEINLDSSTKNYAPSLKDKFIISRDNAKNTLYLQMSKVRSEDTALYYCARNYVGMDYWGQGTSVTVSS
VL: DIVLTQSPASLAVSLGQRATISCRASKSVSSSDYTYMHWYQQKPGQPPKLLIYLASNLESGVPARFSGSGSGTDFTLNIHPVEEEDAATYYCQHSRELPPTFGGGTKLEIKR
notes: Hybridoma-derived antibody (culture supernatant, microscale purified, or protein A purified native lot), isotype IgG1, kappa; These are left out by the residue ranges; also called 29E4B5-1; 29E4B5-1 (Native)
In the case of B1, the “% CAR+” value [1] is reported as 70.1%, the “% CAR+” value [2] is reported as 69.2% and the “% CAR+” value [3] is reported as 67.6%. For the same binder, the “% CAR+” value [4] was 62.9%, the “% CAR+” value [5] was 60.5% and the OD450 nm [6] was 1.5 OD450. It also gave an OD450 nm [7] of 0.087 OD450, an OD450 nm [8] of 0.201 OD450 and an OD450 nm (Total human IgG [9]) of 0.178 OD450. It also gave an OD450 [10] of 1.85 OD450, an OD450 [11] of 0.062 OD450 and an OD450 [12] of 0.054 OD450. The OD450 (Total human IgG [13]) was 0.079 OD450, the OD450 [14] was 1.89 OD450 and the OD450 [15] was 0.059 OD450. For the same binder, the OD450 [16] was 0.059 OD450, the OD450 (Total human IgG [17]) was 0.08 OD450 and the OD450 [18] was 0.245 OD450. For the same binder, the OD450 [19] was 0.077 OD450, the OD450 [20] was 0.085 OD450 and the OD450 (Total human IgG [21]) was 0.076 OD450. For the same binder, the OD450 [22] was 0.983 OD450, the OD450 [23] was 0.067 OD450 and the OD450 [24] was 0.088 OD450. It also gave an OD450 (Total human IgG [25]) of 0.067 OD450, an OD450 [26] of 0.407 OD450 and an OD450 [27] of 0.068 OD450. For the same binder, the OD450 [28] was 0.084 OD450, the OD450 (Total human IgG [29]) was 0.073 OD450 and the Titer [30] was < 1000 dilution (1:x).
